# Measurements published in patent US5559094A (Eli Lilly and Company, priority 1994, dated 1996).
# Assays:
# [1] = Equilibrium ultracentrifugation (aggregation state); format: physicochemical; details: 0.5 mol of Zn per mol of protein; 20 mM Tris pH 7.8; protein 1.5 to 5 mg/ml
# Experimental: Equilibrium ultracentrifugation data was collected at 22° C. at equally spaced radial intervals using a Beckman Model XLA analytical ultracentrifuge Fullterton, Calif. Standard 30 mm and 12 mm centerpieces along with custom-made 3 mm centerpieces all made from charcoal-filled epon were used. Raw data from the chart recorder was converted to concentration versus radius using the internal calibration factors of the scanner. The weight average molecular weight was calculated according to the equation:
# MW=RT/(1-Vp)ω^2.1r.1/C.dC/dr
# where R is the gas constant, T is the temperature, ω is the rotor speed, r is the radius, C is the concentration, .rho. is the solvent density, and assuming ideal solutions. […] Least squares smoothing methods were used to calculate C and dC/dr.
# [2] = α-Helical analysis (CONTIN analysis from the circular dichroism spectra); format: physicochemical
# Source text: ^1 Determined by CONTIN analysis from the circular dichroism spectra.
# [3] = Near- and far-UV circular dichroism; format: physicochemical; details: mean residue ellipticity, variation of 3%
# Experimental: Protein stock solutions were prepared by dissolving a known mass of protein in either 20 mM Tris or 50 mM sodium phosphate and 50 mM sodium chloride, pH 7.8, followed by zinc oxide addition to a final concentration of 0.5 mol Zn per mol of protein monomer. The pH of the solution was readjusted to pH 7.8 as needed. The protein stock concentrations were determined by UV absorbance using an AVIV model 14DS double-beam spectrophotometer. […] All circular dichroism measurements were obtained using an AVIV Model 62DS spectrometer (Lakewood, N.J.) with results reported as mean residue ellipticity (MRE) having units of deg.cm^2.dmol^-1.
# All samples were measured by far-UV CD at 23° C. using a 0.01 cm CD cell. The signal at 224 nm was recorded as a function of either m-cresol or KSCN concentration.
# To further explore secondary structure, the far-UV CD spectra were collected from 250 nm to 200 nm using a 0.01 cm cuvette. To gain insight into the environment of the aromatic and disulfide amino acids the near-UV CD spectra were collected from 350 to 250 nm using a 0.1 cm cell.
# [4] = injection of an acidic solution; cited from earlier work
# [5] = from NMR / x-ray crystallography literature; cited from earlier work
Substance,aggregation state (weight average molecular weight) [1],% Helix Measured [2] [%],"Circular Dichroism, Wavelength 224 nm [3] [deg.cm^2.dmol^-1]","Circular Dichroism, Wavelength 251 nm [3] [deg.cm^2.dmol^-1]","Circular Dichroism, Wavelength 276 nm [3] [deg.cm^2.dmol^-1]",reduction of insulin absorption rate after injection [4] [%],% Helix Theoretical [5] [%]
Zn-Asp^B1 insulin: Asp^B1 insulin containing 0.5 mol of Zn per mol of protein,hexamer,–,–,–,–,–,–
Zn + asp^B1 gln^B13 Insulin: asp^B1 gln^B13 insulin sample with Zn,–,65,-14555,-426,-291,–,–
gln^B13 analog: literature insulin analog with gln at B13 that forms stable hexamers in the absence of Zn,–,–,–,–,–,25,–
Zn + m-cresol + Human Insulin: human insulin sample with Zn and m-cresol [reference compound],–,–,-13488,-425,-335,–,–
Zn + Human Insulin: human insulin sample with Zn [reference compound],–,–,-10892,-121,-305,–,47
Zn + m-cresol + asp^B1 gln^B13 Insulin: asp^B1 gln^B13 insulin sample with Zn and m-cresol,–,64,-14092,-431,-384,–,–
